Test results: patent US20240024501A1 (BONUM THERAPEUTICS, published 2024)
Each block holds one binder with its values, some of them ahead of it.

What was measured:
[1] = target: PD-1 (human, UniProt Q15116 25-167, limits assumed); assay: HTRF
Excerpt: (§1) The PURExpress scFv proteins were used directly in HTRF binding assays and cell-based functional assays.

[2] = target: T1, human IL-2 (human, UniProt P60568 21-153, biotin label in the IL2RB blocking assay); assay: HTRF
T1 construct: also called biotin-labeled IL-2 (Acro Biosystems IL2-H82E4)
Excerpt: as §1

[3] = target: T1, human IL-2; assay: HTRF, IL-2:Fc-IL2RB
Excerpt: as §1

[4] = target: PD-1-Fc (UniProt Q15116 25-167, limits assumed); assay: cell-based or functional assay
PD-1-Fc, sequence (Q15116 25-167 limits assumed): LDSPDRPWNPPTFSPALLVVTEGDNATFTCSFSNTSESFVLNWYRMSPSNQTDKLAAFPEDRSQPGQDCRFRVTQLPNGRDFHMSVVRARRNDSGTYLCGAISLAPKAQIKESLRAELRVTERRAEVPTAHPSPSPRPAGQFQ

T1 sequence (P60568 21-153 limits assumed): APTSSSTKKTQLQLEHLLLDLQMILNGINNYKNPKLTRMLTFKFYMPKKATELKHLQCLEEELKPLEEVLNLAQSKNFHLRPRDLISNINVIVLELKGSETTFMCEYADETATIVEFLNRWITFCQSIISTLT
PD-1, sequence (Q15116 25-167 limits assumed): as the sequence (Q15116 25-167 limits assumed) above

B1: PD1-IL2-R02-C02 (scFv)
scFv: QVQLVQSGAEVKKPGVSVKVSCKASGYTFPRSYIHWVRQAPGQGLEWMGWINPHSGDTYYAQNFQGRVTMTRDTSTSTVYMELSSLRSEDTAVYYCARDTGLGYYYGSGDFDYWGQGTLVTVSSASGGGGSGGGGSGGGGSHASDIQMTQSPSSLSASVGDRVTITCRASQSISRYLNWYQQKPGKAPKLLIYTASSLQSGVPSRFSGSGSGTDFTLTISSLQPEDFATYYCQQANRFPLTFGPGTKVDIK
notes: cell-free expressed, V5-tagged
PD1 Binding (HTRF signal) [1]: 1300
IL2 Binding (HTRF signal) [2]: 298
IL2RB Blocking (HTRF signal) [3]: 1070

B3: AF4386 (other)
heavy 1: APTSSSTKKTQLQLEHLLLDLQMILNGINNYKNPKLTDMLTFEFYMPKKATELKHLQCLERELKPLEEVLNLAQSKNFHLRPRDLISNINVIVLELKGSETTFMCEYADETATIVEFLNRWITFCQSIISTLTGGGGSGGGGSGGGGSGGGGSQVQLVQSGAEVKKPGASVKVSCKASGDTFTRYYVHWVRQAPGQGLEWMGIINPSGGYASYAQKFQGRVTMTRDTSTSTVYMELSSLRSEDTAVYYCAAGLFIWGQGTLVTVSSAKTTAPSVYPLAPVCGDTTGSSVTLGCLVKGYFPEPVTLTWNSGSLSSGVHTFPAVLQSDLYTLSSSVTVTSSTWPSQSITCNVAHPASSTKVDKKIEPRGPTIKPCPPCKCPAPNAAGGPSVFIFPPKIKDVLMISLSPIVTCVVVDVSEDDPDVQISWFVNNVEVHTAQTQTHREDYNSTLRVVSALPIQHQDWMSGKEFKCKVNNKDLGAPIERTISKPKGSVRAPQVYVLPPPEEEMTKKQVTLTCMVTDFMPEDIYVEWTNNGKTELNYKNTEPVLDSDGSYFMYSDLRVEKKNWVERNSYSCSVVHEGLHNHHTTESFSRTPGK
heavy 2: QVQLVQSGAEVKKPGASVKVSCKASGDTFTRYYVHWVRQAPGQGLEWMGIINPSGGYASYAQKFQGRVTMTRDTSTSTVYMELSSLRSEDTAVYYCAAGLFIWGQGTLVTVSSAKTTAPSVYPLAPVCGDTTGSSVTLGCLVKGYFPEPVTLTWNSGSLSSGVHTFPAVLQSDLYTLSSSVTVTSSTWPSQSITCNVAHPASSTKVDKKIEPRGPTIKPCPPCKCPAPNAAGGPSVFIFPPKIKDVLMISLSPIVTCVVVDVSEDDPDVQISWFVNNVEVHTAQTQTHREDYNSTLRVVSALPIQHQDWMSGKEFKCKVNNKDLGAPIERTISKPKGSVRAPQVYVLPPPEKEMTKKQVSLTCLVKDFMPEDIYVEWTNNGKTELNYKNTEPVLKSDGSYFMYSKLTVEKKNWVERNSYSCSVVHEGLHNHHTTKSFSRTPGGGGSGGGSHHHHHH
light: DIQMTQSPSSLSASVGDRVTITCRASQSIGRYLAWYQQKPGKAPKLLIYSASNLETGVPSRFSGSGSGTDFTLTISSLQPEDFATYYCQQYNSFPVTFGPGTKVDIKRADAAPTVSIFPPSSEQLTSGGASVVCFLNNFYPKDINVKWKIDGSERQNGVLNSWTDQDSKDSTYSMSSTLTLTKDEYERHNSYTCEATHKTSTSPIVKSFNRNEC
EC50 of IL-2 activity, HEK-Blue IL-2 reporter cells, IgG1 coated wells (no PD-1) [4]: 1.79 nM
EC50 of IL-2 activity, HEK-Blue IL-2 reporter cells, PD-1 coated wells [4]: 0.05 nM

B8: AF4387 (other)
heavy 1: APTSSSTKKTQLQLEHLLLDLQMILNGINNYKNPKLTDMLTFEFYMPKKATELKHLQCLERELKPLEEVLNLAQSKNFHLRPRDLISNINVIVLELKGSETTFMCEYADETATIVEFLNRWITFCQSIISTLTGGGGSGGGGSGGGGSGGGGSQVQLVQSGAEVKKPGASVKVSCKASGYTFTDYYMHWVRQAPGQGLEWMGIINPRAGYTSYALKFQGRVTMTRDTSTSTVYMELSSLRSEDTAVYYCTSGWDVWGQGTLVTVSSAKTTAPSVYPLAPVCGDTTGSSVTLGCLVKGYFPEPVTLTWNSGSLSSGVHTFPAVLQSDLYTLSSSVTVTSSTWPSQSITCNVAHPASSTKVDKKIEPRGPTIKPCPPCKCPAPNAAGGPSVFIFPPKIKDVLMISLSPIVTCVVVDVSEDDPDVQISWFVNNVEVHTAQTQTHREDYNSTLRVVSALPIQHQDWMSGKEFKCKVNNKDLGAPIERTISKPKGSVRAPQVYVLPPPEEEMTKKQVTLTCMVTDFMPEDIYVEWTNNGKTELNYKNTEPVLDSDGSYFMYSDLRVEKKNWVERNSYSCSVVHEGLHNHHTTESFSRTPGK
heavy 2: QVQLVQSGAEVKKPGASVKVSCKASGYTFTDYYMHWVRQAPGQGLEWMGIINPRAGYTSYALKFQGRVTMTRDTSTSTVYMELSSLRSEDTAVYYCTSGWDVWGQGTLVTVSSAKTTAPSVYPLAPVCGDTTGSSVTLGCLVKGYFPEPVTLTWNSGSLSSGVHTFPAVLQSDLYTLSSSVTVTSSTWPSQSITCNVAHPASSTKVDKKIEPRGPTIKPCPPCKCPAPNAAGGPSVFIFPPKIKDVLMISLSPIVTCVVVDVSEDDPDVQISWFVNNVEVHTAQTQTHREDYNSTLRVVSALPIQHQDWMSGKEFKCKVNNKDLGAPIERTISKPKGSVRAPQVYVLPPPEKEMTKKQVSLTCLVKDFMPEDIYVEWTNNGKTELNYKNTEPVLKSDGSYFMYSKLTVEKKNWVERNSYSCSVVHEGLHNHHTTKSFSRTPGGGGSGGGSHHHHHH
light: DIQMTQSPSSLSASVGDRVTITCRASQSISTWLAWYQQKPGKAPKLLIYAASSLDSGVPSRFSGSGSGTDFTLTISSLQPEDFATYYCQQSYSFPVTFGQGTKVEIKRADAAPTVSIFPPSSEQLTSGGASVVCFLNNFYPKDINVKWKIDGSERQNGVLNSWTDQDSKDSTYSMSSTLTLTKDEYERHNSYTCEATHKTSTSPIVKSFNRNEC
EC50 of IL-2 activity, HEK-Blue IL-2 reporter cells, IgG1 coated wells (no PD-1) [4]: 0.419 nM
EC50 of IL-2 activity, HEK-Blue IL-2 reporter cells, PD-1 coated wells [4]: 0.057 nM

B11: PD1-IL2-R07-A04 (scFv)
scFv: QVQLVQSGAEVKKPGASVKVSCKASGYTFTDYYMHWVRQAPGQGLEWMGIINPRAGYTSYALKFQGRVTMTRDTSTSTVYMELSSLRSEDTAVYYCTSGMDVWGQGTLVTVSSASGGGGSGGGGSGGGGSHASDIQMTQSPSSLSASVGDRVTITCRASQSISTWLAWYQQKPGKAPKLLIYAASSLQSGVPSRFSGSGSGTDFTLTISSLQPEDFATYYCQQSYSFPVTFGQGTKVEIK
PD1 Binding (HTRF signal) [1]: 730
IL2 Binding (HTRF signal) [2]: 973
IL2RB Blocking (HTRF signal) [3]: 1610

B12: PD1-IL2-R06-E04 (scFv)
scFv: QVQLVQSGAEVKKPGASVKVSCKASGYTFTRYYIHWVRQAPGQGLEWMGWINAYNGDTNYAQKLQGRVTMTRDTSTSTVYMELSSLRSEDTAVYYCARDSYYYDSFDYWGQGTLVTVSSASGGGGSGGGGSGGGGSHASDIQMTQSPSSLSASVGDRVTITCRASQTITDWLAWYQQKPGKAPKLLIYGASNLQGGVPSRFSGSGSGTDFTLTISSLQPEDFATYYCQQYYSSWTFGQGTKVEIK
notes: as for B1
PD1 Binding (HTRF signal) [1]: 50
IL2 Binding (HTRF signal) [2]: 247
IL2RB Blocking (HTRF signal) [3]: 1110

Further lines, results first:

PD1 Binding (HTRF signal) [1]: 1550
IL2 Binding (HTRF signal) [2]: 4
IL2RB Blocking (HTRF signal) [3]: 1550
B2: PD1-R04-C10 (scFv)
chain: MSTSTEQKLISEEDLQVQLVQSGAEVKKPGASVKVSCKASGYTFTTYYMHWVRQAPGQGLEWMGIINPSGGGTLYAQKFQGRVTMTRDTSTSTVYMELSSLRSEDTAVYYCAAGLFIWGQGTTVTVSSASGGGGSGGGGSGGGGSHASDIVMTQSPDSLAVSLGERATINCKASQSLLHSSSNKNYLAWYQQKPGQPPKLLIYWASTRESGVPDRFSGSGSGTDFTLTISSLQAEDVAVYYCQQYYSTPITFGPGTKVDIKGSGLNDIFEAQKIEWHEGKPIPNPLLGLDST

PD1 Binding (HTRF signal) [1]: 995
IL2 Binding (HTRF signal) [2]: 520
IL2RB Blocking (HTRF signal) [3]: 1610
B4: PD1-IL2-R02-A08 (scFv)
scFv: QVQLVQSGAEVKKPGASVKVSCKVSGYTFTSYDINWVRQAPGQGLEWMGWINPNSGDTGYAQKFQGRVTMTRDTSTSTVYMELSSLRSEDTAVYYCARDTGLGYYYGSGDFDYWGQGTLVTVSSASGGGGSGGGGSGGGGSHASDIQMTQSPSSLSASVGDRVTITCQASQDIHNYLNWYQQKPGKAPKLLIYDVSNLETGVPSRFSGSGSGTDFTLTISSLQPEDFATYYCQQAISFPLTFGGGTKVEIK

PD1 Binding (HTRF signal) [1]: 1680
IL2 Binding (HTRF signal) [2]: 628
IL2RB Blocking (HTRF signal) [3]: 1810
B5: PD1-IL2-R02-B07 (scFv)
scFv: QVQLVQSGAEVKKPGASVKVSCKASGDTFTRHYVHWVRQAPGQGLEWMGIINPSGGYASYAQKFQGRVTMTRDTSTSTVYMELSSLRSEDTAVYYCAAGLFIWGQGTLVTVSSASGGGGSGGGGSGGGGSHASDIQMTQSPSSLSASVGDRVTITCRASQSIGRWLAWYQQKPGKAPKLLIYSASNLETGVPSRFSGSGSGTDFTLTISSLQPEDFATYYCQQANSFPVTFGPGTKVDIK

PD1 Binding (HTRF signal) [1]: 1240
IL2 Binding (HTRF signal) [2]: 2040
IL2RB Blocking (HTRF signal) [3]: 910
B6: PD1-IL2-R07-A09 (scFv)
scFv: QVQLVQSGAEVKKPGASVKVSCKASGYTFTSYYMHWVRQAPGQGLEWMGIINPSDGSTTYAQSFQGRVTMTRDTSTSTVYMELSSLRSEDTAVYYCASGWDVWGQGTLVTVSSASGGGGSGGGGSGGGGSHASDIVMTQSPDSLAVSLGERATINCKSSQSVFSSANNKNYLAWYQQKPGQPPKLLIYWASTRESGVPDRFSGSGSGTDFTLTISSLQAEDVAVYYCQQYFGTPVTFGGGTKVEIK
notes: as for B1

PD1 Binding (HTRF signal) [1]: 1620
IL2 Binding (HTRF signal) [2]: 1560
IL2RB Blocking (HTRF signal) [3]: 1780
B7: PD1-IL2-R02-A11 (scFv)
scFv: QVQLVQSGAEVKKPGASVKVSCKASGHTFTRYYMHWVRQAPGQGLEWMGIINPSGGYATYAQKFQGRVTMTRDTSTSTVYMELSSLRSEDTAVYYCASGWDVWGQGTLVTVSSASGGGGSGGGGSGGGGSHASDIQMTQSPSSLSASVGDRVTITCRASQSINSWLAWYQQKPGKAPKLLIYATSTLESGVPSRFSGSGSGTDFTLTISSLQPEDFATYYCQQSYSFPPTFGQGTKVEIK

PD1 Binding (HTRF signal) [1]: 1660
IL2 Binding (HTRF signal) [2]: 2490
IL2RB Blocking (HTRF signal) [3]: 1610
B9: PD1-IL2-R02-B05 (scFv)
scFv: QVQLVQSGAEVKKPGASVKVSCKASGYTFTNYYIHWVRQAPGQGLEWMGIINPRAGYTSYALKFQGRVTMTRDTSTSTVYMELSSLRSEDTAVYYCAGGWLDWGQGTLVTVSSASGGGGSGGGGSGGGGSHASDIQMTQSPSSLSASVGDRVTITCRASQSISSWLAWYQQKPGKAPKLLIYAASSLQSGVPSRFSGSGSGTDFTLTISSLQPEDFATYYCQQSFTMPITFGQGTRLEIK

PD1 Binding (HTRF signal) [1]: 1380
IL2 Binding (HTRF signal) [2]: 293
IL2RB Blocking (HTRF signal) [3]: 1210
B10: PD1-IL2-R02-C03 (scFv)
scFv: QVQLVQSGAEVKKPGASVKVSCKASGYTFPRYHIHWVRQAPGQGLEWMGMINPSGGTTTYAQKFQGRVTMTRDTSTSTVYMELSSLRSEDTAVYYCARDTGLGYYYGSGDFDYWGQGTLVTVSSASGGGGSGGGGSGGGGSHASDIQMTQSPSSLSASVGDRVTITCRASQSISSWLAWYQQKPGKAPKLLIYAASSLQSGVPSRFSGSGSGTDFTLTISSLQPEDFATYYCQQSHSFPLTFGGGTKVEIK
notes: as for B1
